Molecular target: T1, recombinant CD3 epsilon (Homo sapiens (species ; human …, UniProt P07766)
T1 construct: recombinant CD3 epsilon (Sigma-Aldrich); No catalogue number is printed; source: bought: Sigma-Aldrich
Assay: ELISA; indirect ELISA; 0.5 µg recombinant CD3 epsilon coated overnight at 4 °C; 500 µg/ml protein of total cell lysate, periplasmic or cytoplasmic fraction with the scFv, 37 °C 1 h; detected with HRP-conjugated anti-E tag, A405; signals of the negative protein and of BSA-coated wells subtracted
Conditions: one partner purified

T1 sequence (P07766 23-126): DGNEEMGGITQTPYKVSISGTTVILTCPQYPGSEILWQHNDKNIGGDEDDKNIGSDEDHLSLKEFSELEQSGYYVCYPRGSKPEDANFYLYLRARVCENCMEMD

B1: human scFv CD3 clone 18 (scFv, V domains shown)
VH: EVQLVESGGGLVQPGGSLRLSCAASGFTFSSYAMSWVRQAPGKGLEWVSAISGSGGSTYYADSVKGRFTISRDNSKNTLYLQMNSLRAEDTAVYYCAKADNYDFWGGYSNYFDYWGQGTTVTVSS
VL: EIVMTQSPATLSVSPGERATLSCTASQSVRNNLAWYQQKPGQPPRLLIYGASTRATGIPARFSGSRSGTEFTLTISSLQSEDFGVYYCQQYNNWPRTFGQGTKVEIK
notes: selected from a naive human scFv M13 phage library; About 28 kDa on Western blot; source: E. coli HB2151, IPTG-induced; total cell lysate, periplasmic fraction or cytoplasmic fraction
- binding result: binds

Source: article PMC12148185, “Combining CD3/GD2 bispecific T cell engager with human Vγ9Vδ2 T cells facilitates neuroblastoma cell targeting and killing in vitro” (PLOS One, 2025)
